We go through 30 sequences from the nanobody polyreactivity screen of Harvey et al. (2022).

This data set can be described thus: yeast display, Sf9 membrane polyspecificity reagent, FACS + sequencing; frameworks hold sequencing errors. A digest of the protocol:
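Synthetic nanobody libraries on Saccharomyces cerevisiae BJ5465 were galactose-induced for 36–48 hours, stained 1 hour at 4 °C with 10% biotinylated, detergent-solubilized Sf9 membrane reagent and enriched on streptavidin microbeads. FACS then separated cells into low and high (top ~1%) gates by anti-HA (expression) and streptavidin (reagent binding) fluorescence. Genes were colony-PCR amplified, MiSeq 2 × 250 sequenced and CDR-length filtered. A clone's polyreactivity label is that of its gate of origin.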
For the sequence “QVQLVESGGCLVQAGGSLRLSCAASGGTFSRNAMGWYRQAPGKERELVAAINSSGVSTSYAYSVKGRFTISRDNEKNTVYLQMNSLKPEDTAFYYCAAETSSAEVDYWGQGTQVTVSS”, the “polyreactivity (PSR sort gate)” value is “low polyreactivity”.

On to “QVQLVESGGCLVQAGGSLRLSCAASGITFRYYAMGWYRQAPGKERELVATISYSGGTTYYAESVKGRFTISRDNAKNTVYLQMNSLKPEDTAVYYCKAVYRYKYGYRDYDYWGQGSQVTVSS”, for which the “polyreactivity (PSR sort gate)” value is recorded as “high polyreactivity”.

In the case of “QVQLVESGGCLVQAGGSLRLSCAASGITFVSNVMGWYRQATGKEREFVAAITGRGDTTYADSVKGRFTISRDNAKNTVYLQMNSLKPEDTAVYYCAAEYSVPYRGWDGYEYWGQGTQVTVSS”, the “polyreactivity (PSR sort gate)” value is listed as “low polyreactivity”. Regarding “QVQLVESGGCLVQAGGSLRLSCAASGLTFGSYGMGWYRQAPGKERELVAAITATGGSTYYADSVKGRFTISRDNAKNTVYLQMNSLKPEDTAVYYCAATRRSKVWLYGYWGQGTQVTVSS”, the “polyreactivity (PSR sort gate)” value is recorded as “high polyreactivity”.

For the sequence “QVQLVESGGCLVQAGGSLRLSCAASGLTFNKNAMGWYRQAPGKEREFVAAITRRGGSTYYADSVKGRFTISRDNAKNTVYLQMNSLKPEDTAVYYCAVYPASVNPYHYDYWGQGTQVTVSS”, the “polyreactivity (PSR sort gate)” value was “high polyreactivity”. On to “QVQLVESGGCLVQAGGSLRLSCAASGNIIVGNDMGWYRQAPGKERELGAAISSGDTTSYADSVKGRFTISRDNAKNTVFLQMISLKPEDTAVYYCAAGFTYPYDYWGQGTQVTVSS”, for which the “polyreactivity (PSR sort gate)” value is “low polyreactivity”. Under “QVQLVESGGCLVQAGGSLRLSCAASGRIFDRNAMGWYRQAPGKERELVARIDPGDDTNYADSVKGRFTISRDNAKNTVYLQMNSLKPEDTAVYYCATDPDYVLYRTAYYEYDYWGQGTQVTVSS” stands “low polyreactivity”; under “QVQLVESGGCLVQAGGSLRLSCAASGRIFFLYAMGWYRQAPGKERELVAAITWSADGTYYADSVKGRFTISRDNAKNTVYLQMNSLKPEDTAVYYCNADAYTTASSYNWWYYYWGQGTQVTVSS”, “low polyreactivity”. Under “QVQLVESGGCLVQAGGSLRLSCAASGRIFTTNAMGWYRQAPGKERELVAAITYSGGTTYYADSVKGRFTISRDNAKKTVYLQMNSLKPEDTAVYYCAADVKFSTPYDYWGQGTQVTVSS” stands “low polyreactivity”. On to “QVQLVESGGCLVQAGGSLRLSCAASGRTFIGYAMGWYRQAPGKERELVAAISSTGGSTYYADSVKGRFTISRDNAKNTVYLQMNSLKPEDTAVYYCATDAARPPRTPDISDVSNFDYWGQGTQVTVSS”, for which the “polyreactivity (PSR sort gate)” value was “low polyreactivity”. Under “QVQLVESGGCLVQAGGSLRLSCAASGRTFRGYAMGWYRQAPGKERELVARISVSGGSTYYADSVKGRFTISRDNAKNTVYLQMNSLTPDDTAVYYCNARPYTYWRSQYDYWGQGTQVTVSS” stands “high polyreactivity”.

With “QVQLVESGGCLVQAGGSLRLSCAASGRTLYRNAMGWYRPAPGKERELVARITWSGASTYYADSVKGRFTISRDNAKNTVYLQMNSLKPEDTAVYYCAAQYLSRRYGPYYTYNYWGQGTQVTVSS”, the “polyreactivity (PSR sort gate)” value is given as “high polyreactivity”. Under “QVQLVESGGCLVQAGGSLRLSCAASGRTYVVNAMGWYRHAPGKESELVAAITTGGSTYYADSVKGRFTISRENAKYTVYLQMNSLKPEDTAVYYCAADIYLYYIFDYWVDYDYWGQCTQVTVSS” stands “high polyreactivity”; under “QVQLVESGGCLVQAGGSLRLSCAASGSIFDRYAMGWYRQAPGKERGLVAAISSSGGSTYYADSVKGRFTISRDNAKNTVYLQMNSLKPEDTAVYYCAAEYYASPYYWSYDYWGQGTQVTVSS”, “high polyreactivity”. With “QVQLVESGGCLVQAGGSLRLSCAASGSIFIYYAMGWYRQAPGKERELVATISVRGGSTYYADSVKGRFTISRDNAKNTVYLQMNSLKPEDTAVYYCNAVTSGTTKSAYDYWGQGTQVTVSS”, the “polyreactivity (PSR sort gate)” value was “high polyreactivity”.

As for “QVQLVESGGCLVQAGGSLRLSCAASGSIFTKYTMGWYRQAPGRERELVAAITLRGTSTYYADSVKGRFTISRDIAKNTVYLQMNSLKPEDTAVYYCNKLYSWVVAYDYWGQGTQVTVSS”, the “polyreactivity (PSR sort gate)” value was “high polyreactivity”. “QVQLVESGGCLVQAGGSLRLSCAASGSIFTRYAMGWYRQAPGKERELVADIRWGGGDTYYADSVKGRFTISRDNAKNTVYLQMNSLKPEDTAVYYCNADFGAPNTGRPEVQNSDEFGYWGQGTQVTVSS”: the “polyreactivity (PSR sort gate)” value is “low polyreactivity”.

Regarding “QVQLVESGGCLVQAGGSLRLSCAASGSIFWSYSMGWYRQAPGKERELVAAISSGGSTNYADSVKGRFTISRDNAKNTVYLQMNSLKPEDTAVYYCSARFYTTSVRRKRYDYWGQGTQVTVSS”, the “polyreactivity (PSR sort gate)” value is recorded as “high polyreactivity”. “QVQLVESGGCLVQAGGSLRLSCAASGSIFYYYAMGWYRQAPGKERELVADISISGGSTYYADSVKGRFTISRDNAKNTVYLQMNSLKPEDTAVYYCAATDYLWEPTVSNWGYTFDSWGQGTQVTVSS”: the “polyreactivity (PSR sort gate)” value was “low polyreactivity”. Regarding “QVQLVESGGCLVQAGGSLRLSCAASGSISTNYAMGWYRQAPGKERELVAAISDSSGSTYYADSVKGRFTISRDNAKNTVYLQMNSLKPVDTAVYYCNADSQGGRDVHYDYEYYYWGQGTQVTVSS”, the “polyreactivity (PSR sort gate)” value was “low polyreactivity”.

As for “QVQLVESGGCLVQAGGSLRLSCAASGSSFSRYTMGWYSQAPGKERELVAVISDSSGRTYYADSVKGRFTISRDTAKNTVYLQMNSLKPEDTAVYYCAAEYSDIYEYCGQGTQVTVSS”, the “polyreactivity (PSR sort gate)” value is recorded as “low polyreactivity”. Under “QVQLVESGGCLVQAGGSLRLSCAASGSTFDGNAMGWYRQAPGKERELVATINSGSSTTYADSVKGRFTISRDNAKNTVYLQMNSLKPEDTAVYYCNVDSGSDSLVYSVRYNYWGQGTQVTVSS” stands “low polyreactivity”; under “QVQLVESGGCLVQAGGSLRLSCAASGSTFIDYAMGWYRQAPGKERELVAAITNGGNTKYADSVKGRFTISRDNAKNTVYLQMNSLKPEDTAVYYCAREPSIFTPSYDYWGQGTQVTVSS”, “low polyreactivity”; under “QVQLVESGGCLVQAGGSLRLSCAASGSTFLINAMGWYRQAPGKEREFVASIRYRGATTYADSVKGRFTISRDNAKNTVYLQMNTLKPEDTAVYYCAASIWLRYHWGYDYWGQGTQVTVSS”, “high polyreactivity”. Under “QVQLVESGGCLVQAGGSLRLSCAASGSTFPRYAMGWYRQAPGKERELVATINSGGSTYYADSVKGCFTISRDNAKNTVYLQMNSLKPEDTAVYYCAAGYRWTYTSGTYIRYNYWGQGTQVTVSS” stands “high polyreactivity”. Under “QVQLVESGGCLVQAGGSLRLSCAASGSTFSPYAMGWYRQAPGKERELVAGITGRGGRTYYADSVKGRFTISRDNAKNTVYLQMNSLKPEDTAVYYCAAKYYGNKRDLYYWGQGTQVTVSS” stands “low polyreactivity”; under “QVQLVESGGCLVQAGGSLRLSCAASGSTFVHNAMGWYRQAPGKERELVAAISESGGGTYYADSVKGRFTISRDNAKNTVYLQMNSLKPEDTAVYYCAAPPAGENWRDGGGYWGQGTQVTVSS”, “low polyreactivity”.

As to “QVQLVESGGCLVQAGGSLRLSCAASGYTFSLNAMGWYRQAPGKERELVAAISYSGGSTYYADSVKGRFTISRDNAKNTVYLQMNSLKPEDTAVYYCAVRRPQYSYYWDFDYWGQGTQLTVSS”, the “polyreactivity (PSR sort gate)” value was “high polyreactivity”. Under “QVQLVESGGCLVQAGGSLRLSCAATGFIFYPDAKGWYRQAPGTEMELVAVITSGGRTYYADSVKGRFTITRDNAKNTVYLQMNSLKPEDTAVYYCAALYLGLWPTDIFDYWGQGTQVTVSS” stands “low polyreactivity”; under “QVQLVESGGCLVQAGGSLRLSCAAYGSIFGGNAMGWYRQAPRKERELVAAITQSGDRTYYADSVKGRFTISRDNANNTFYFQMNSLKPEDTAVYYSAARSPRKYGSIGYYWGQGTQVTVSS”, “high polyreactivity”.
